Legend:
DLD1 and U20S cells = assay: Mitotic index of stably transfected DLD1 and U20S cells in response to nocodazole; format: cell-based, human
Procedure: (§1) Stable transfectants were prepared by transfecting DLD1 or U20S cells with 5 μg pSV2-HAchfr or pSV2-HAchfr-M580, or 5 μg pSV2 vector without insert and 1 μg pSV7neo plasmid [Wieczorek et al., supra] using Fugene-6 transfection reagent (Roche). Stably transfected cells were selected with G418. For transient expression, DLD1 or U20S cells were transfected with 5 μg pSV2-HAchfr or pSV2-HAchfrM580 or pSV2 plasmid without insert and 2 μg of a plasmid expressing green fluorescent protein using Fugene-6. SAOS2 cells were transfected as described above, except that the plasmids expressing Chfr were cotransfected with a plasmid expressing green fluorescent protein (GFP).
(§2) Cells were grown on 8-well culture slides coated with human fibronectin (Becton Dickinson) and were examined as either non-synchronized or synchronized cells. […] The slides were sealed with coverslips using Fluoromount-G (Upstate Biotechnology) and visualized with a fluorescence microscope (Leica). […]
To determine whether Chfr accounted for the different response, DLD1 and U20S cells were prepared to stably express HA-tagged wild-type Chfr or Chfr with the […] substitution (M580) or just the neo selectable marker. […] Furthermore, the different effects of wild-type Chfr and Chfr-M580 could not be attributed to differences in protein expression, as determined by immunoblotting. […]

DLD1 cells [1] = assay: Mitotic index of transiently-transfected DLD1 cells exposed to mitotic stress; format: cell-based, human; conditions: DLD1 cells co-transfected with wild-type Chfr
Procedure: as §1, §2
About 50% of the cells expressed GFP, but the variable level of expression made it difficult to define a threshold above which a cell would be considered GFP-positive. Thus, to avoid any bias, the mitotic index was calculated for the entire cell population. […]

Chfr = assay: Ubiquitin-protein ligase assay in vitro; format: biochemical, human; conditions: crude bacterial lysates with E1, E2, ubiquitin and ATP; 20 minutes at 30° C.
Procedure: Recombinant E. coli bacterial cells that have been genetically engineered to express the E1 ubiquitin-activating enzyme and the E2 ubiquitin-conjugating enzyme (either UbchD2 or Ubch8) and a […] comprised of glutathione S-transferase fused to the N-terminus of Chfr were lysed. The lysates were incubated in the presence of ubiquitin and ATP and the reaction allowed to proceed for 20 minutes at 30° C. GST-Chfr was captured on glutathione beads, eluted with SDS sample buffer, and resolved by SDS-PAGE. The SDS gel was immunoblotted with antibodies that recognize ubiquitin. Reactions were performed with full-length Chfr fused to GST and reactions were performed with Chfr lacking amino acid residues 1–280 of SEQ ID NO: 2, which contain the FHA domain.

DLD1 cells [2] = assay: Mitotic index of unsynchronized DLD1 cells stably expressing Chfr or Chfr-A325, exposed to nocodazole; format: cell-based, human; conditions: stably transfected unsynchronized DLD1 cells
Source text: To determine whether ubiquitin-protein ligase activity is required for checkpoint function, the Chfr mutant that substitutes Cys325 of the ring finger with Ala was stably-expressed in DLD1 cells. These cells were then exposed to mitotic stress and examined for entry into metaphase. The mitotic index of unsynchronized DLD1 cells exposed to nocodazole is high, indicating the absence of a checkpoint that would delay entry into metaphase in response to mitotic stress.

| Molecule | mitotic index in response to nocodazole (DLD1 and U20S cells) | dominant negative effect on wild-type Chfr (DLD1 cells [1]) | ubiquitin-protein ligase activity (ubiquitination of GST-Chfr) (Chfr) | mitotic index after exposure to nocodazole (DLD1 cells [2]) |
| --- | --- | --- | --- | --- |
| Chfr-M580: chfr protein bearing a substitution of Val580 with Met (protein, UniProt Q96EP1 1-664, looked up, variant V580M) E3 ubiquitin-protein ligase …: MERPEEGKQSPPPQPWGRLLRLGAEEGEPHVLLRKREWTIGRRRGCDLSFPSNKLVSGDHCRIVVDEKSGQVTLEDTSTSGTVINKLKVVKKQTCPLQTGDVIYLVYRKNEPEHNVAYLYESLSEKQGMTQESFEANKENVFHGTKDTSGAGAGRGADPRVPPSSPATQVCFEEPQPSTSTSDLFPTASASSTEPSPAGRERSSSCGSGGGGISPKGSGPSVASDEVSSFASALPDRKTASFSSLEPQDQEDLEPVKKKMRGDGDLDLNGQLLVAQPRRNAQTVHEDVRAAAGKPDKMEETLTCIICQDLLHDCVSLQPCMHTFCAACYSGWMERSSLCPTCRCPVERICKNHILNNLVEAYLIQHPDKSRSEEDVQSMDARNKITQDMLQPKVRRSFSDEEGSSEDLLELSDVDSESSDISQPYVVCRQCPEYRRQAAQPPHCPAPEGEPGAPQALGDAPSTSVSLTTAVQDYVCPLQGSHALCTCCFQPMPDRRAEREQDPRVAPQQCAVCLQPFCHLYWGCTRTGCYGCLAPFCELNLGDKCLDGVLNNNSYESDILKNYLATRGLTWKNMLTESLMALQRGVFLLSDYRVTGDTVLCYCCGLRSFRELTYQYRQNIPASELPVAVTSRPDCYWGRNCRTQVKAHHAMKFNHICEQTRFKN | high mitotic index | aid not act as a dominant negative mutant |  |  |
| GST-Chfr: glutathione S-transferase fused to the N-terminus of full-length Chfr (protein, left off: a dimerising Fc or GST) MERPEEGKQSPPPQPWGRLLRLGAEEGEPHVLLRKREWTIGRRRGCDLSFPSNKLVSGDHCRIVVDEKSGQVTLEDTSTSGTVINKLKVVKKQTCPLQTGDVIYLVYRKNEPEHNVAYLYESLSEKQGMTQESFEANKENVFHGTKDTSGAGAGRGADPRVPPSSPATQVCFEEPQPSTSTSDLFPTASASSTEPSPAGRERSSSCGSGGGGISPKGSGPSVASDEVSSFASALPDRKTASFSSLEPQDQEDLEPVKKKMRGDGDLDLNGQLLVAQPRRNAQTVHEDVRAAAGKPDKMEETLTCIICQDLLHDCVSLQPCMHTFCAACYSGWMERSSLCPTCRCPVERICKNHILNNLVEAYLIQHPDKSRSEEDVQSMDARNKITQDMLQPKVRRSFSDEEGSSEDLLELSDVDSESSDISQPYVVCRQCPEYRRQAAQPPHCPAPEGEPGAPQALGDAPSTSVSLTTAVQDYVCPLQGSHALCTCCFQPMPDRRAEREQDPRVAPQQCAVCLQPFCHLYWGCTRTGCYGCLAPFCELNLGDKCLDGVLNNNSYESDILKNYLATRGLTWKNMLTESLVALQRGVFLLSDYRVTGDTVLCYCCGLRSFRELTYQYRQNIPASELPVAVTSRPDCYWGRNCRTQVKAHHAMKFNHICEQTRFKN |  |  | efficient ubiquitination |  |
| Chfr-A325: Chfr mutant that substitutes Cys325 of the ring finger with Ala (protein, UniProt Q96EP1 1-664, looked up, variant C325A) E3 ubiquitin-protein ligase …: MERPEEGKQSPPPQPWGRLLRLGAEEGEPHVLLRKREWTIGRRRGCDLSFPSNKLVSGDHCRIVVDEKSGQVTLEDTSTSGTVINKLKVVKKQTCPLQTGDVIYLVYRKNEPEHNVAYLYESLSEKQGMTQESFEANKENVFHGTKDTSGAGAGRGADPRVPPSSPATQVCFEEPQPSTSTSDLFPTASASSTEPSPAGRERSSSCGSGGGGISPKGSGPSVASDEVSSFASALPDRKTASFSSLEPQDQEDLEPVKKKMRGDGDLDLNGQLLVAQPRRNAQTVHEDVRAAAGKPDKMEETLTCIICQDLLHDCVSLQPCMHTFAAACYSGWMERSSLCPTCRCPVERICKNHILNNLVEAYLIQHPDKSRSEEDVQSMDARNKITQDMLQPKVRRSFSDEEGSSEDLLELSDVDSESSDISQPYVVCRQCPEYRRQAAQPPHCPAPEGEPGAPQALGDAPSTSVSLTTAVQDYVCPLQGSHALCTCCFQPMPDRRAEREQDPRVAPQQCAVCLQPFCHLYWGCTRTGCYGCLAPFCELNLGDKCLDGVLNNNSYESDILKNYLATRGLTWKNMLTESLVALQRGVFLLSDYRVTGDTVLCYCCGLRSFRELTYQYRQNIPASELPVAVTSRPDCYWGRNCRTQVKAHHAMKFNHICEQTRFKN |  |  | lacks ubiquitin-protein ligase activity | did not lead to a low mitotic index |

Source: patent US7176293B1, “Compositions and methods to enhance sensitivity of cancer cells to mitotic stress” (The Wistar Institute of Anatomy and Biology, priority 1999, dated 2007)
